Read-outs that look alike come from different tables or passages of the source.
Key:
[1] = target: T1, mYOX1 (Naegleria gruberi) (UniProt D2W6T1); conditions: LC-MS, 20 uM mYOX1, Bis-TRIS pH 6.0, Fe(II), alpha-ketoglutarate
T1 sequence: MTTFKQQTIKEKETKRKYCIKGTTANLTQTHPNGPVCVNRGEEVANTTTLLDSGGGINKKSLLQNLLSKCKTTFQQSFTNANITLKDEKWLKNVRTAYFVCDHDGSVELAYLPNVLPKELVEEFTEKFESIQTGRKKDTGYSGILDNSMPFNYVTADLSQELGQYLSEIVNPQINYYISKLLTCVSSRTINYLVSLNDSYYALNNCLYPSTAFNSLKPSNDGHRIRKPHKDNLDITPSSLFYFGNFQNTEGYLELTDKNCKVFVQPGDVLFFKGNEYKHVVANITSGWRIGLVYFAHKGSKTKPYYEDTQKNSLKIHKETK

[2] = target: T1, mYOX1 (Naegleria gruberi); conditions: LC-MS after NaBH4 reduction and T4-BGT, caC 29.3%, ghmC 67.7%, mC 3.0%

IMR90 genomic DNA
activity (% 5mC oxidized) ([1]; caC 89.1%, hmC 1.7%, fC 8.7%, mC 0.5%): 99.5

MG1655 genomic DNA
activity (% 5mC oxidized) [2]: 97

pTXB1-M.SssI plasmid
activity (% 5mC oxidized) ([1]; caC 91.2%, hmC 1.8%, fC 5.9%, mC 1.0%): 99
